This note sets out measurements from PMC7595633 (PLoS Neglected Tropical Diseases, 2020).

Series [1] concerns the molecule itself. Put plainly: native gel or EMSA; PhastGel gradient 8-25%, room temperature; 1 mg/mL (methods), 2 mg/mL (legend of Fig 1D); Coomassie stained.
Series [2] deals with the molecule itself. Put plainly: AUC; sedimentation equilibrium; tetramer to dimers; 0.5, 0.75 and 1.0 mg/mL; 8,000, 10,000 and 12,000 rpm, 4°C; global fit in SEDPHAT.

Several values for one entry are separate records, joined by “and”; a condition that tells them apart may be missing. Equal values may be shown once.

B1: Trypanosoma brucei selenophosphate synthetase (TbSEPHS2), recombinant full-length (enzyme, UniProt Q38A34 1-393, looked up)
chain: MSEKEGKVIPETNGMKRPRFDPVKLGLPEEFTLTDYTRLKGCSCKVPQPELLALLQSVSTTPGRRDVGMDCSIVKLQHKDETGKPLYMVSTTDFFFPSVEDPYLQGQIGAANVLSDLYSTGIDRCDTVLMLLAASTDMDKTEREVCTQEMMKGFVDHVRLAGSDVTGGQTVMNPWPLIGGIATSVVAESQMIRPTGLQPGDILVLTKPLGCQIAVNLKQWLRRPSPIFEEQIQGKMDSEEIEELYNAAADGMKRLNRMAAALMHSHGAHGATDVTGFGILGHAKNLGSAQKADVCLVLDSLPMYRGAVKASKLMGDKYRLFEGYAAETSGGLLVAFGTREEAEGYIRELYETDGEPAWVVGRVVRREGSAPYALLQKDYKIIEVGAKVNDKII
notes: selenophosphate synthetase SEPHS2 of Trypanosoma brucei, Tb927.10.9410, 393 residues (from the limits of the truncated constructs); also called SPS2; TbSPSH2
As usually defined, the stoichiometry N is the number of molecules, sites or subunits per partner or assembly. In general, Kd refers to the free concentration of one partner at which half of the binding sites on the other are occupied at equilibrium, for simple one-to-one binding. Take B1: in series [1], the “stoichiometry N” value is 2 and 4. The affinity in series [2], expressed as Kd, was 161 ± 10 µM.
